# Experimental data: patent US20040186048
# Target: Ferritin-H (ferritin heavy chain) (Homo sapiens) (UniProt P02794)
# Assay: cell_activity
# Settings: CV-1 cells, EKLF-stimulated beta-CAT reporter
# Chain of Ferritin-H (ferritin heavy chain) (Homo sapiens) (P02794 2-183): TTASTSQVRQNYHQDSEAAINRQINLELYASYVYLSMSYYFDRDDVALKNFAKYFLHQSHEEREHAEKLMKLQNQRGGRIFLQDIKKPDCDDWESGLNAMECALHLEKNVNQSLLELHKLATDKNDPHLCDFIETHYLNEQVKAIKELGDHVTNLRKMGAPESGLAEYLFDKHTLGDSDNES
substance,measurement,value
beta-globin 5' region -610/+20 (630 bp),activity,62 % repression
